Measurements reported in the DeepSol protein solubility set.

experiment: soluble on expression in E. coli; label from the status in PepcDB or PDB records

Sequence | soluble on expression in E. coli
MTMHREPGGERYYYTWAWFEGPDDAAWRVTGHHTDSGEQYRLDWNLAERSLCVTDSLGRTRCHWWDAQGLVTAYRDEAGQMTTFRWSDEERLLLGMTDAQGGKWRYVYDRLGHLTETHDPLGRVEQTQWHPVWHQPETEVDAAGAAWRYEYDERGNLQAVSDPLHQRTVYGYDRHGQVVRITDARGGDKYLQWNEDGQLMRHTDCSGSQTAWFYDERTRLERVTDAESNSTRYSYDGNGHLTEVMFADGRTERYQPDAAGRLVKYTSPAGQITRWQRDGQGRVRRQTDATGRRTAYEYDAYGRLTTLTNENGESYRFRYDVLDRLTEQTDPGGSRRAYGYNALNAVTAVIYGGERGGEIRHGLERDAAGRLTAKTTPETRTEYRYDAADRLLEIRRRRHDAAEGGEPEVIRFSYDSAGNLLSEETAQGVLQHRYDVQGNRTETQMPDGRTLRYLYYGSGHLQQINLGRDVISEFTRDHLHREVQRSQGRLDTRRMYDRTGRLTRKPTCKGMRGVVPETFIDREYAYSGQDELLKKRHSRQGVTDYFYDTTGRITACRNEAYLDSWQYDAAANLLDRRQGETAQAGAGSVVPFNRITSYRGLHYRYDEYGRVVEKRGRNGTQHYRWDAEHRLTEVAVIRGSTVRRYGYVYDAPGRRVEKHELDAEGKPYNRTTFLWDGMRLAQECRLGRSSSLYIYSDQGSHEPLARVDRAAPGEADEVLYYHTDVNGAPEEMTDGRGNIVWEAGYQVWGNLTHEKETRPVQQNLRFQGQYLDRETGLHYNLYRFYDPDIGKFISGDPISIRGGINLYQYAPNPIKWIDPLGLYNGEGQRELGKYHVFHEHNLDITEYGLSDAEHFSRGNQAIYERMKNDPAFRREMQTKYPGVVEHVQPSSGGKFSTESPPGLTWHHENKPGVLSLVDRLDHKTYHKIYHPLEHHHHHH | soluble
MTMVQVTLEVNGRQVAHEAPPRMHLGDFLRDQARLTGTHLGCEHGVCGACTVLVDGQPVRSCITYAVACEGRQVTTIEGYDGDPVMARLRAAFTKYHALQCGYCTPGMLTTSRDIVLRLPDADEARVRVELSGNLCRCTGYMGIVGAVMSVLRDLREQPDAAVQALRAAAADGRLPAPRGEQPIAFQPFTPSAPAAAQAAPRPAAAASPASGKGNQIVDAFTVPFPAAEVWAFMVDLPAVAACLPGAVIEETDGQRVKGKIAIKFGPMAAAFNGAARLERDEEAMRAVFRGAGQDSLSQSRATGDIAYQVEAVSENETRVKVDLQYALQGPLAQFSRSGLVQDFVRRMIADFGKNVTARLRQPGGEALPQAQFNPVAMFFSVLWMRVKRWFGRGGLEHHHHHH | not soluble
MTNFEYYRDFDDFQRRETINFFLSKFPLASQKQLQDFLEQARQAYVQLRQTNPAHLDWNQTLLYLAQKFLPEKQSEKDRLKKILVLQEQLKVRYEGEIKRQSQQNSELLIQLGQRDEEIIQMQQLFKEKERQLEVYQKQLNEAKEYNHKLEEHYNKTLEEALKEYEQQCTDAIHRRDEEIQAIFTSKLNEKNSEITQLQTYLQSAVDENEALQKQHKLVLFKNQKYEKMVSDLQVDLARIQEINNSLTSEKRDFQRANNDLVKQYNKLKNRLEQKLGEITNAQVNGQTHTVSLADTSQQFHRPQEAVIPQTQVISYTLDDMDDDMEVEETPPTTNKDLPRGATQPKRNSIKRVSKLID | soluble
MTNLTFYAKIGISEEEHDSFVKEHQQISVLQGSDWAKIKNQWQNERIGIYKEEKQVASLSLLIKLLPLGRSIIYIPRGPVMDYLDRDLVAFTMKTLKDYGKTKKALFIKYDPAILLKQYALGQEEEEKPLALAAIKNLQEAGVHWTGLTMEIADSIQPRFQANIYTQENLEMQFPKHTRRLIKDAKQRGVKTYRVSQSELHKFSKIVSLTEKRKNISLRNEAYFQKLMTTYGDKAYLHLAKVNIPQKLDQYRQQLILINQDITRTQAHQKKRLKKLEDQKASLERYITEFEGFTDQYPEEVVVAGILSISYGNVMEMLYAGMNDDFKKFYPQYLLYPNVFQDAYQDGIIWANMGGVEGSLDDGLTKFKANFAPTIEEFIGEFNLPVSPLYHIANTMYKIRKQLKNKH | not soluble
MTNNAVLQLRAERLARATRPFLARGNRVRRCQRCLLPLKSCLCDTLTPSQAKSRFCLVMFDTEPMKPSNTGRLIADILPDTAAFQWSRTEPPQALLELVQHPDYQPIVVFPASYAGEAREVISTPPAGKPPLFIMLDGTWPEARKMFRKCPYLDHLPVISVDLSRLSAYRLREIHAEGQYCTAEVAIALLDLAGDTEAATSLGEHFTRFKTRYLAGKTQHPGNVTALEHHHHHH | not soluble
MTNNDKNKKIVPEVKGTLRSHMIELPEVIRNATGIRVFGKRLKSFVFSTDVAVIRNTNADAVIAVYPFTPQPVITAAIVLAADVPVFCGVGGGLTMGKRVVNLALDAEFKGAMGVVVNSPTPNDIIREVRETIDIPIIVTVVSEYEDVQARIDSGATILNVSGAKRTSHIVRSIREKFPSIPIIATGGNNEASIIETIEAGANAITYTPPTTGKIFGDTMNSYRKKFE | not soluble
MTNNDPYHTLINEICALSLISTPERFYESANFKISEVDFTLQYQDRDEGRAVLIYGDMGALPTRNRDAALLALMDINFHMFSGVHSPVFSWNAQTSRVLLMGSVSLERASAEGVLLLMKSFADLANEWREHGFIGQVKTAGAPAEQPVATAAKRESLSASGKFQ | not soluble
MTNPGDGAAGAADRATLDHWRPRLAAIAAAAGQDDAAHDLGHLRRVWDAARAMLQAHPEADALVVLAASYLHDLVNLPKNHPERHLASRQAAAAARERLARAGFPAARLDAVAHAIEAHSFSAGIAPRTIEARIVQDADRLDALGPVGLVRMFHVGGSLGRALAHPSDPLAAQRALDDSRYTLDHIEAKLARLPHGMQTEAGRRLGEQRLAWLRDFRAAFSAQWGGGQLRLEHHHHHH | not soluble
MTNPWEVSDAEYQKNFAMFGQLTGGQPFMDAVTARNALMRSNLPTQVLSQIWALSDLDKDGRLDIREYSIAMRLALNCLAGIPIPPQLPPSLLVVPARNAPPTWPGSRHGSVDYSQTLPPAIDRRMSQSYIPSAPVSIAGTPSSRHNSISAGSPLNNDRNVFEGRQLENWAIPHHNKLKYSQLFNALDKERLGSLSSQVGRSALGLSGLPTNVLAHIWFLSDVNKDGKLSVDEYAISQYMIEMFKSGFALPKITPLELVRMCGISSRSANNTPELEPGAEPPQKSPAPKTFEDKRQDNLSKGQAELERRRRVLEEEEQRRRAEVEKKEREEEAKKNRERQEKERQAEVERQAELERQRIIEAQREEEEKKRRLEMERRREEDEKMRKVQMEKAKVKQMQVQMPEQKKWNFYNQKQQENERLAQRQQREKTLQFQLQALDEKVIDVEVDIGKAKEAVAEVTGFIERMRSTRDEKVARIKELQETNQKTAIESQELGHQLLQKQSAHKETTQRKSELEALRRKRDAIRKAIEDAALELSTEKEKSYNQTEILKTNKEKYKTDVYSKLVAKREEYRNSFELLVHAQTHARSKIGEFEAKSAPASAAPAPAPAPAPTTTNGFPANFNDAFGEFDKTDASQRFDADFGATSTADPFAQIAQAPAHSKGAVDQSAFNIHDTYKCRALFAFEARSEDELSFEPGDVIIVFQSHAAEPGWRAGQLREKVGWFPEAFVEAIAAVPTPGGDPPIQNMPPNMTPSSSVDQIGVKAARKAEIAAAMGLTEGGAPPASSAPAAAAVISQCIAQFQWRARNEEDLSFAKGDTIEVLEKQEMKWKGRNPAGEIGWFPKSYVKEVGATTSTTTPIVSPSKASAGAPGAAAGAQYDVVPSDVTLQASETAPQQQLYTVIYDFEAVETTDLALHVGDTILVLEKNDEWWKGRCNGREGIFPANYVEISVQQAGDPTPPTQAPTPAAPPTVLCEAKVVVDFVASAPNQLGIKVGEIVKIREKSAAGWWEGELIRNGKPIAGWFPGEYVKVLEEAASPATRATAVYDYEASQPDELGFKTGDVIIVTDKSEAEWWSGHREQDPSKSGLFPSNYVQQQ | not soluble
MTNQNLQDFLDGVLLKEENLNKITEVSLEKGLPHLLDEGIHNEDNFQIFTSQKIVADMIKMVGVKEMKNVHTTVLEPTSGDGAFTCAILDLRLKNIKKSDSFLKEALTGLSTIYSVEIDEELVWLQRNNLYSIFLAFLKKHGIFNEELSLLVKKILMINVSWGELITETKDNENFVCNYDYFLRNKKTKKKPAKHKHEFPEGLFSNGEGKCKSLFVNWSFADVINEIAHNSNFYFAKIAKIPGEIIQFQIN | not soluble
MTNTLVENIYASVTHNISKKEASKNEKTKAVLNQAVADLSVAASIVHQVHWYMRGPGFLYLHPKMDELLDSLNANLDEVSERLITIGGAPYSTLAEFSKHSKLDEAKGTYDKTVAQHLARLVEVYLYLSSLYQVGLDITDEEGDAGTNDLFTAAKTEAEKTIWMLQAERGQGPAL | soluble
MTNVLWLQGGACSGNTMSFLNGEEPTACDLIANFGIKVLWHPSLGVELGNNLQTLLWDCVLGKTPLDILVFEGSVVNAPNGTGEWNRFADRPMKDWLIDLSQAAKFIVAVGDCATWGGIPAMSPNPSDSKGLQFLKRKEGGFLGKDFVSKAGLPVINIPGCPTHPDWITQILVAIATGRTDDIVLDELHRPQTFFNTYTQTGCTRNIHFAYKATTAEFGQRKGCLFYDLGCRGPMTHSSCNRILWNRISSKTRAGMPCLGCTEPEFPFFDLKPGTVFKTQTVMGVPKEIPPGVNHRDYAVLTVVAKDAAPKWADEDFFTV | not soluble
MTPFPAYVPPDFTRPDLAAAPPVRVAEAPGSGVLPAGFHATSNYPEYVHLGGGRWLLASGSRMDAVLVLDGDMLRVVEPRLVRRGDRVVVGRTENGEEGIYVHTTGFDAPAGAGGDKFTFRSRGTRESPFSRSYEELYDILRHDRDHGHIVWVLGPAVAFDRDSRAAMAGLIGGGYCHALLAGNALATHDLEAALFHTGLGQDIYTQALVAGGHYHHLDVINEVLRHGSLERAIAELGIRDGIIRACLEHRVPVVLAGSIRDDGPLPDVITDSRQAQDAMRAHARRATTVIALATQLHAIAVGNMTPSYRVLDDGTVRPVYFYIVDMSEFGADKLANRGSGQARAILTNVQDFMVNLWNNLKG | not soluble
MTQEAIFKAIREREMKVLNIQVTSSCNYACGMCPFHGDGYSGEYFDERPTIRRDMSLDEIKLILEKASMEGFEWIDLTPNGEFFTHKQWYQILSLIKEFGLKIMITSNGGLLGEEDIKRACEVGVDHIVISVDSLSYESYKKIRKPATKLAFERAIHAPLYFKKYGGDSIYVQIQITEQPEFPHEALGVLDFYKDKGLNQISLKKMFVTGEDGIGHIGVEKLEYTHGKCKAYGSPIVMTDGTVLPCCGAFYFYPKLGEKIPNIFNHTIFESARILDDLYERDSLFGSYCRNCSLYDSSRKAAPVKFIFGDYYAEQTLFETRYFILPKYLRFLPSLAILWLYKKGYARKIKQWLVAAQ | not soluble
MTQPLFLIGPRGCGKTTVGMALADSLNRRFVDTDQWLQSQLNMTVAEIVEREEWAGFRARETAALEAVTAPSTVIATGGGIILTEFNRHFMQNNGIVVYLCAPVSVLVNRLQAAPEEDLRPTLTGKPLSEEVQEVLEERDALYREVAHIIIDATNEPSQVISEIRSALAQTINC | soluble
MTQQKLELTWFNKDQALIPQERGRYGYAWVDPHDPRYCQTHYLIEGETITGEQAPKQDGTQYGERADLEPTTDNLLINGESGDVLEALTRVPELADKYVGKVKCIYIDPPFNTAQTFANYEDNLEHSVWLTMMRDRLLHMKKLLSEDGSIWVHLDDVENHRMRLLMDEVFGAGNFVAEVVWEKTYSPRNDSKGIPAVTDTILVYRKSDQFSPNRLPRTAEMNARYKNPDHDRNGPWKSGDTTAPGNMSGKVQHPSVFAIQHPVTGQFIYPTYGRMWCFGQERILSSLSRYAPYRLAEPDMKSRSKRTGIPEEQLRADVFDLVVDETARQGDKTQAFRNISLGNWPEFFITDKGFGRKVPMSKSDGRVAPNLLRWEEVGHTDGAKKEITALFPNQAA | not soluble
